Publication PMC7414852

Key:
Assay in all cases: cryo-EM structure
[1] = biological target: Trypsin-activated Vip3Aa16 toxin (cleaved at K198, both fragments kept together) (Bacillus thuringiensis)
[2] = biological target: Vip3Aa16 N-terminal trypsin fragment (domain I, to K198) (Bacillus thuringiensis)
[3] = biological target: Vip3Aa16 protoxin (Vegetative Insecticidal Protein 3Aa from Bacillus thuringiensis), residues 10-789 (Bacillus thuringiensis)

“Trypsin-activated Vip3Aa16 toxin (cleaved at K198, both fragments kept together) (complex)” showed a stoichiometry N [1] of 4.
“Vip3Aa16 N-terminal trypsin fragment (domain I, to K198) (domain or fragment)” gave a stoichiometry N [2] of 4.
“Vip3Aa16 protoxin (Vegetative Insecticidal Protein 3Aa from Bacillus thuringiensis), residues 10-789 (natural protein)” showed a stoichiometry N [3] of 4.
